These results are taken from PMC2148129.

Like-named read-outs stand apart in the source and are kept apart here.

The target of test [1] is peripheral node addressin. Description: parallel plate laminar flow chamber, duration of transient cell tethers.
Test [2] concerns the target peripheral node addressin. The test is described as above. This is another data set of the same source.

B1: L-selectin (receptor)
chain: WTYHYSEKPMNWQRARRFCRDNYTDLVAIQNKAEIEYLEKTLPFSRSYYWIGIRKIGGIWTWVGTNKSLTEEAENWGDGEPNNKKNKEDCVEIYIKRNKDAGKWNDDACHKLKAALCYTASCQPWSCSGHGECVEIINNYTCNCDVGYYGPQCQFVIQCEPLEAPELGTMDCTHPLGNFSFSSQCAFSCSEGTNLTGIEETTCGPFGNWSSPEPTCQVIQCEPLSAPDLGIMNCSHPLASFSFTSACTFICSEGTELIGKKKTICESSGIWSNPSPICQKLDKSFSMIKEGDYNPLFIPVAVMVTAFSGLAFIIWLARRLKKGKKSKRSMNDPY
B1: the transient tether lifetime stood at 0.087 s in test [1] and 0.057 s in test [2].
